# Where no end group is shown, it is not given here. fluorescein = fluorescein label attached at the C-terminus
# B1: LSLPPVKLHK-fluorescein (peptide)
# peptide: LSLPPVKLHK-fluorescein
# Columns and labels:
# … peptide = conditions: cited from earlier work
# [1] = molecular target: human N-His6-mortalin (Δ1-51) (human, UniProt P38646 52-679); test: fluorescence polarisation
# human N-His6-mortalin (Δ1-51), sequence (P38646 52-679, stated change not applied): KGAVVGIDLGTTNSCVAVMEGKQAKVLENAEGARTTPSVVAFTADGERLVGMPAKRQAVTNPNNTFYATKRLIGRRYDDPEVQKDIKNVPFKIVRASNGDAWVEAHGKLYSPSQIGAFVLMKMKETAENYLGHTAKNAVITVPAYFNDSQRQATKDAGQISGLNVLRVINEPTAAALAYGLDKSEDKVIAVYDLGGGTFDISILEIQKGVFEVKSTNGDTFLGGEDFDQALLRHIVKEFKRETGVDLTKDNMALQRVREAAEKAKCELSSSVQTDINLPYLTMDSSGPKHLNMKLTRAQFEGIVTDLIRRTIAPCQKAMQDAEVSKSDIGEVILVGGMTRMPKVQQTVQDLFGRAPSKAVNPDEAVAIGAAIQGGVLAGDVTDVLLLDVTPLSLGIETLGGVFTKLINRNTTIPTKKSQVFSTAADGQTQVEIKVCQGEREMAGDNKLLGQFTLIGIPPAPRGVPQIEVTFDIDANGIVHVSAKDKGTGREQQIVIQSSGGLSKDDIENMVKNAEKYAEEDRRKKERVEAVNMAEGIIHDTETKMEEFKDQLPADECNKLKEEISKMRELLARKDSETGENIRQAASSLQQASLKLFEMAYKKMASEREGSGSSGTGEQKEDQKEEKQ
Molecule,Kd (… peptide) [nM],Kd [1] [nM]
Ssq1 (from UniProt Q05931),2800,
B1,,1200 ± 100
